Target: HP1032 protein, sigma28 factor of RNA polymerase (FliA) of Helicobacter pylori (Helicobacter pylori strain 26695)
Assay: cell-based or functional assay

HP1122 protein, anti-sigma28 factor (FlgM) of Helicobacter pylori
flaA mRNA, RNA slot blot hybridization, HP1122-inactivated strain against wild type: 2.5 fold | fold decrease in flaA mRNA, RNA slot blot hybridization, HP1122-overexpressing N6 strain against wild type: 2 fold

— US20020192796A1
